Experimental data published in US20140212406.

Target: plasminogen

B1: rat single-chain tPA with arginine to serine point mutation at position 276 (R276S), 6xHis-tagged (protein)
chain: HHHHHHSYRATCRDEQTQTTYQQHQSWLRPMLRGNRVEYCRCNSGLAQCHSVPVRSCSEPRCFNGGTCQQALYFSDFVCQCPDGFVGKRCDIDTRATCFEGQGITYRGTWSTAENGAECINWNSSALSQKPYSARRPNAIKLGLGNHNYCRNPDRDVRPWCYVFKAGKYTTEFCSTPACPKGPTEDCYVGKGVTYRGTHSFTTSKASCLPWNSMILIGKTYTAWRANSQALGLGRHNYCRNPDGDAKPWCHVMKDRKLTWEYCDMSPCSTCGLRQYKQPLFSIKGGLFTDITSHPWQAAIFVKNKRSPGERFLCGGVLISSCWVLSAAHCFVERFPPHHLKVVLGRTYRVVPGEEEQTFEIEKYIVHKEFDDDTYDNDIALLQLRSDSSQCAQESSSVGTACLPDPDVQLPDWTECELSGYGKHEASSPFFSDRLKEAHVRLYPSSRCTSQHLFNKTITSNMLCAGDTRTGGNQDVHDACQGDSGGPLVCMIDKRMTLLGIISWGLGCGQKDVPGIYTKVTNYLNWIQDNMKQ
conversion of plasminogen into plasmin (fibrin agarose zymography; PPP-clot lysis): Whereas sc*-tPA is not able to promote alone the conversion of plasminogen into plasmin, its fibrin cofactor partially brings back its plasminogen activation function
